Source: patent US20240317847A1 (Bayer, published 2024)
Where a chain is given by its changes, count along the chain named.

B1: TPP-23580 (antibody, mouse IgG1, kappa)
heavy: EVQLVQSGAEVKKPGASVKISCKASGYTFTDYNMDWVKQAPGQRLEWIGDINPHNGGPIYNQKFTGRATLTVDKSASTAYMELSSLRSEDTAVYYCARGELGHWYFDVWGQGTTVTVSSAKTTPPSVYPLAPGSAAQTNSMVTLGCLVKGYFPEPVTVTWNSGSLSSGVHTFPAVLQSDLYTLSSSVTVPSSTWPSETVTCNVAHPASSTKVDKKIVPRDCGCKPCICTVPEVSSVFIFPPKPKDVLTITLTPKVTCVVVDISKDDPEVQFSWFVDDVEVHTAQTQPREEQFNSTFRSVSELPIMHQDWLNGKEFKCRVNSAAFPAPIEKTISKTKGRPKAPQVYTIPPPKEQMAKDKVSLTCMITDFFPEDITVEWQWNGQPAENYKNTQPIMDTDGSYFVYSKLNVQKSNWEAGNTFTCSVLHEGLHNHHTEKSLSHSPGK
light: DIVLTQSPASLALSPGERATLSCRASKSVSTSGYSYIHWYQQKPGQPPRLLIYLASNLDSGVPARFSGSGSGTDFTLNIHPLEEEDFATYYCQHSRDLPPTFGQGTKLEIKRADAAPTVSIFPPSSEQLTSGGASVVCFLNNFYPKDINVKWKIDGSERQNGVLNSWTDQDSKDSTYSMSSTLTLTKDEYERHNSYTCEATHKTSTSPIVKSFNRNEC
notes: text calls it the mouse IgG1 version of the WO2019238882 antibody; also called BSN 3C6 2.2-2.1-mIgG1Kappa
B2: TPP-31293 (antibody, IgG4, V domains shown)
VH: EVQLLESGGGLVQPGGSLRLSCAASGFTFSHYDMNWVRQAPGKGLEWVGVISYDGSNKFYADFVKGRFTISRDNSKNTLYLQMNSLRAEDTAVYYCARTPGSHFDYWGQGTLVTVSS
VL: QSVLTQPPSASGTPGQRVTISCSGSSSNIGNNAVNWYQQLPGTAPKLLIYYDDLLPSGVPDRFSGSKSGTSASLAISGLRSEDEADYYCSAWDDSLNGVVFGGGTKLTVL
notes: hIgG4 SPLE, lambda
B3: TPP-31278 (antibody, IgG4, V domains shown)
VH: B2 VH with V37L
VL: B2 VL with A33Y
notes: hIgG4 SPLE, lambda
B4: TPP-31294 (antibody, IgG4, V domains shown)
VH: B2 VH with V37L, G49A
VL: B2 VL
notes: hIgG4 SPLE, lambda
B5: TPP-31277 (antibody, IgG4, V domains shown)
VH: B2 VH with V37L
VL: B2 VL with N31S
notes: hIgG4 SPLE, lambda
B6: TPP-31296 (antibody, IgG4, V domains shown)
VH: B2 VH with V37L, F63S
VL: B2 VL
notes: hIgG4 SPLE, lambda

Assays:
murine IL-11 [1] = molecular target: T1, murine IL-11 (mouse, UniProt P47873 22-199); test: Di-complex ELISA, competitor canine IL11RA-Fc on coated IL-11;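 on Efficacy (%): signal drop relative to signal at lowest antibody concentration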
T1 construct: Invigate, e.g. lot #C210819-09; biotinylated where coated in the ELISA; also called mIL-11; mIL11
T1 sequence: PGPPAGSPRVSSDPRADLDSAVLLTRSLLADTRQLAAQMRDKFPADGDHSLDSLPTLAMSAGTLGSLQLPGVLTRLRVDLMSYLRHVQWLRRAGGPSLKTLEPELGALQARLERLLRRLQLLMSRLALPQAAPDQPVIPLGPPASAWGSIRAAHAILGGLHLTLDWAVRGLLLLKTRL

human IL-11 [2] = molecular target: T2, human IL-11 (human, UniProt P20809 22-199); test: as above
T2 construct: Invigate, e.g. lot #C121021-19; biotinylated where coated in the ELISA; also called hIL-11; hIL11
T2 sequence: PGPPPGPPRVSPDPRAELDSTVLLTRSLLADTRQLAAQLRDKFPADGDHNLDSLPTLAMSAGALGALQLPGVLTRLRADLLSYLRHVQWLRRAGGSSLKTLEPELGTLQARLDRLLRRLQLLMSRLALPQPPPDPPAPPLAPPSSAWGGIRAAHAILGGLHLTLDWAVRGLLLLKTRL

cynomolgus IL-11 [3] = molecular target: T3, cynomolgus IL-11 (cynomolgus, UniProt P20808 22-199); test: cell-based or functional assay
T3 sequence: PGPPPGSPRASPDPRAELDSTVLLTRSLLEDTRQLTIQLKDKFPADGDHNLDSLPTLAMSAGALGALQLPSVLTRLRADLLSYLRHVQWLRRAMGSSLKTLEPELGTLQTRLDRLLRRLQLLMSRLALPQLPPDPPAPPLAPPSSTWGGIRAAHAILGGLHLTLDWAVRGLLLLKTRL

murine IL-11 [4] = molecular target: T1, murine IL-11; test: cell-based or functional assay
human IL-11 [5] = molecular target: T2, human IL-11; test: cell-based or functional assay
rat IL-11 [6] = molecular target: T4, rat IL-11 (rat, UniProt Q99MF5 22-199); test: cell-based or functional assay
T4 sequence: T1 sequence with S50N, L84F, G94A, V137A, I138V

cynomolgus IL-11 [7] = molecular target: T3, cynomolgus IL-11; test: SPR 37 C, antibody captured, IL-11 as analyte
murine IL-11 [8] = molecular target: T1, murine IL-11; test: SPR 37 C, antibody captured, IL-11 as analyte
human IL-11 [9] = molecular target: T2, human IL-11; test: SPR 37 C, antibody captured, IL-11 as analyte
rat IL-11 [10] = molecular target: T4, rat IL-11; test: SPR 37 C, antibody captured, IL-11 as analyte
human IL-11 [11] = molecular target: T5, human IL-11 (human, UniProt P20809 22-199); test: cell-based or functional assay; remark: listed apart in the source
T5 sequence: T2 sequence

murine IL-11 [12] = molecular target: T6, murine IL-11 (mouse, UniProt P47873 22-199); test: cell-based or functional assay; remark: listed apart in the source
T6 sequence: T1 sequence

human IL-11 [13] = molecular target: T5, human IL-11; test: SPR; limit told of 12 single-site germlining mutants; antigen not given, SPR run on human and mouse IL-11
murine IL-11 [14] = molecular target: T6, murine IL-11; test: as above
human IL-11 [15] = molecular target: T5, human IL-11; test: cell-based or functional assay; remark: listed apart in the source
murine IL-11 [16] = molecular target: T6, murine IL-11; test: cell-based or functional assay; remark: listed apart in the source

IC50, RGA 1 (human IL-11 [11]) | IC50, RGA 2 (human IL-11 [11]) | IC50, RGA 1 (murine IL-11 [12]) | IC50, RGA 2 (murine IL-11 [12]) | Kd (human IL-11 [13]) | Kd (murine IL-11 [14]) | RGA potency (mean) (human IL-11 [15]) | RGA potency (mean) (murine IL-11 [16]) | also measured | Binder
 |  |  |  |  |  |  |  | Efficacy (%) (murine IL-11 [1]): 93%; IC50 (murine IL-11 [1]): 6.8 nM; Efficacy (%) (human IL-11 [2]): 93.3%; IC50 (human IL-11 [2]): 10 nM; RGA Efficacy (%) (cynomolgus IL-11 [3]): 21.9%; RGA Efficacy (%) (murine IL-11 [4]): 88.9%; RGA IC50 (murine IL-11 [4]): 7.9 nM; RGA Efficacy (%) (human IL-11 [5]): 64%; RGA Efficacy (%) (rat IL-11 [6]): 62.2%; RGA IC50 (rat IL-11 [6]): 14 nM; binding result (cynomolgus IL-11 [7]): no binding (tested: IL-11 up to 200 nM); Kd (murine IL-11 [8]): 2.4 nM; Kd (human IL-11 [9]): 2.1 nM; Kd (rat IL-11 [10]): 4.1 nM | B1
58 nM | 13 nM | 31 nM | 13 nM | < 19 nM | < 19 nM | < 170 nM | < 170 nM |  | B2
22 nM | 2.36 nM | 0.13 nM | 0.08 nM | < 19 nM | < 19 nM | < 170 nM | < 170 nM |  | B3
96 nM | 38 nM | 41 nM | 28 nM | < 19 nM | < 19 nM | < 170 nM | < 170 nM |  | B4
211 nM | 47 nM | 43 nM | 27 nM | < 19 nM | < 19 nM | < 170 nM | < 170 nM |  | B5
46 nM | 158 nM | 20 nM | 22 nM | < 19 nM | < 19 nM | < 170 nM | < 170 nM |  | B6
